Measurements reported in patent US20040214988, “Method for stabilization of proteins using non-natural amino acids” (California Institute of Technology, published 2004).

Legend:
[1] = target: Tfl-bZip (GCN4 bZip segment 226-281 with Tfl-GCN4-p1 dimerization domain) four d-position Leu of the GCN4-p1 zipper replaced by 5,5,5-trifluoroleucine (UniProt P03069); test: EMSA; details: densitometry of mobility shift
[2] = target: T1, Leu-bZip (GCN4 bZip segment, residues 226-281) (UniProt P03069 P03069:226-281); test: EMSA; densitometry of mobility shift; details: protein: synthetic; tags: 56-residue peptide; chain copies: 2 (stated, dimer)
T1 sequence (P03069 226-281, one chain of several): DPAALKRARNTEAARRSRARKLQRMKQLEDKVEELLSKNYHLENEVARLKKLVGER

[3] = target: T1, Leu-bZip (GCN4 bZip segment, residues …); test: EMSA; no protein-bound DNA seen; details: protein: synthetic; tags: 56-residue peptide; chain copies: 2 (stated, dimer)

Tfl-bZip (GCN4 bZip segment 226-281 with Tfl-GCN4-p1 dimerization domain) four d-position Leu of the GCN4-p1 zipper replaced by 5,5,5-trifluoroleucine, sequence (P03069 whole entry, the tested form may be a part): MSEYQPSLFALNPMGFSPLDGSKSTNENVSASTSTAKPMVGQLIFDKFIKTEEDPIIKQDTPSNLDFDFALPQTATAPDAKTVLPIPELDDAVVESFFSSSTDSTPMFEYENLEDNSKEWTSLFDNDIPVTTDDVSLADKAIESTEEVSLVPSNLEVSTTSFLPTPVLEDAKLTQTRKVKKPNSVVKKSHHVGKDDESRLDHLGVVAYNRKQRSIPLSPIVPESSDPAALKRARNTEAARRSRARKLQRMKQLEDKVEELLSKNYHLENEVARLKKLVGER

“GTGGAGATGACTCATCTCCGG (double strand) [AP-1 site oligonucleotide]” showed a Kd [1] of 12.5 nM.

Work on “TGGAGATGACGTCATCTCCT (double strand) [CREB site oligonucleotide]” yielded a Kd ([1]; CD at 0 C also shows coil-to-helix transition on CREB DNA) of 5.4 nM.

B1: AP-1 site oligonucleotide (dsDNA)
DNA 1: GTGGAGATGACTCATCTCCGG
DNA 2: CCGGAGATGAGTCATCTCCAC
With B1 the Kd [2] was 12.8 nM.

B2: NON nonspecific oligonucleotide (dsDNA)
DNA 1: GATCCCAACACGTGTTGGGATC
DNA 2: GATCCCAACACGTGTTGGGATC
B2: no binding [3].
